According to patent US5770720:

How the values were obtained:
[1] = target: LexADB/WT-INS (containing residues 250-266 of WT1) (human) (UniProt P19544); experiment: yeast two-hybrid, LexA DNA binding domain fusion against Gal4 activation domain vector alone
[2] = target: LexADB/WT-N (LexA DNA binding domain fused to residues 85-179 of human WT1) (human) (UniProt P19544); experiment: as above
[3] = target: LexADB/lamin C hybrid (Escherichia coli (strain K12)); experiment: as above
[4] = target: LexADB/WT-N (LexA DNA binding domain fused to residues 85-179 of human WT1) (human) (UniProt P19544); experiment: yeast two-hybrid, LexA DNA binding domain fusion against Gal4 activation domain fusion
[5] = target: LexADB/lamin C hybrid (Escherichia coli (strain K12)); experiment: as above
[6] = target: WT1, Wilm's tumor suppressor gene product (full length) (human) (UniProt P19544)

Sequence of hUBC-9, human ubiquitin conjugating enzyme (P63279 whole entry): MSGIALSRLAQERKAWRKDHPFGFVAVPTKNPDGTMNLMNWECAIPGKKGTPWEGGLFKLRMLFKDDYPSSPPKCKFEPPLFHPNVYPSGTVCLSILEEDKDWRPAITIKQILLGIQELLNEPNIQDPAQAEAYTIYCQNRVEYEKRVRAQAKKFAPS
Sequence of hUBC-9 fused with the Gal4 activation domain (P63279 whole entry, the tested form may be a part): as the sequence (P63279 whole entry) above

Substance: Gal4 activation domain vector alone (from UniProt P04386)
- β-Galactosidase activity [1]: 0.2 units
- β-Galactosidase activity [2]: 0.3 units
- β-Galactosidase activity [3]: 0.3 units

Substance: hUBC-9 fused with the Gal4 activation domain
- β-Galactosidase activity [4]: 57.9 units
- β-Galactosidase activity [5]: 1.5 units

Substance: hUBC-9, human ubiquitin conjugating enzyme
- relative CAT activity (PDGF A-chain promoter driven CAT reporter, 293 cells) (% relative activity) [6]: 2
